# T1: GLP-1 receptor (murine cell line) (murine, UniProt O35659 22-463)
# T1 sequence (looked up): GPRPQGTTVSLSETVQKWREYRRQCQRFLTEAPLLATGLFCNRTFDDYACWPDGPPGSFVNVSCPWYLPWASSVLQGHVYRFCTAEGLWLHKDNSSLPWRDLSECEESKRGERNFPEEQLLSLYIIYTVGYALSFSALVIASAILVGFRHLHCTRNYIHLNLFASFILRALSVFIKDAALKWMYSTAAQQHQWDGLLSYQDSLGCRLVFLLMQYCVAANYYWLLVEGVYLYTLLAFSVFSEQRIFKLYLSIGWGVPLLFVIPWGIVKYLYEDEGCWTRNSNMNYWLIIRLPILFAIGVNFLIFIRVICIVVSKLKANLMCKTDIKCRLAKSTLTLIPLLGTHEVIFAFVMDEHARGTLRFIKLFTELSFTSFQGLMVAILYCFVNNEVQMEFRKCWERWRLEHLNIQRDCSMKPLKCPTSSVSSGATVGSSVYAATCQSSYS
# B1: EU-A992 (peptide)
# peptide: HXQGTFTSDYSKYLDXQAAXEFIXWLLQT
# modifications: not fully specified; Aib at 2; Glu*16 and Lys*20 cyclized through their side chains to a lactam; Lys(N-omega(1-octyl beta-D-glucuronyl)) at 24; C-terminal amide (NH2)
# B2: EU-A391 (peptide)
# peptide: HXQGTXTSDYSKYLDXX
# modifications: not fully specified; 1-dodecyl alkyl glycoside surfactant on a linker residue (position not given)
# Experiments:
# Experiment in all cases: cell-based or functional assay
# [1] = target: GLP-1 receptor (human, cloned into CHO cells) (human, UniProt P43220 24-463)
# [2] = target: glucagon receptor (human, cloned into CHO cells) (human, UniProt P47871 26-477)
# [3] = target: T1, GLP-1 receptor (murine cell line)
# glucagon receptor (human, cloned into CHO cells), sequence (P47871 26-477): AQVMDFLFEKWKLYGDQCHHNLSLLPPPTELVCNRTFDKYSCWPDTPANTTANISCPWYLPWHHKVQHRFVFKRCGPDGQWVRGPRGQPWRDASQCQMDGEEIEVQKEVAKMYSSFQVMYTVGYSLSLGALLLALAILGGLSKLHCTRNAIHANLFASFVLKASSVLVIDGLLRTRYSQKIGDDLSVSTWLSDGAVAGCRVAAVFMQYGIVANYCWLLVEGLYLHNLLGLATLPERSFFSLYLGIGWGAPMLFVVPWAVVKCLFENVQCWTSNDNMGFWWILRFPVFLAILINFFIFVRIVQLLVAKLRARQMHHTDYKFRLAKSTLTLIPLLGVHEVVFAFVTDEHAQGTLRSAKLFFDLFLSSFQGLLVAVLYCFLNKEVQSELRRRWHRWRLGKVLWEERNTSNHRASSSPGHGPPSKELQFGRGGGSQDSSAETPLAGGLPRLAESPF
Binder,EC50 cAMP (DiscoveRx) [1] [nM],EC50 cAMP (DiscoveRx) [2] [nM],"EC50, cAMP stimulation in cells (Cerep) [3] [nM]"
B1,0.009,0.019,–
B2,–,–,420

# Source: US20240424062A1 (MEDERIS DIABETES, published 2024)
